The source of these data is patent publication US20250057965A1, “PEPTIDE OLIGONUCLEOTIDE CONJUGATES” (Sarepta Therapeutics, Inc., priority 2015, published 2025).

Several values for one entry are separate records, joined by “and”; a condition that tells them apart may be missing. Equal values may be shown once.

A short description of data set [1]: Maximum tolerated dose (MTD) study in mdx mice: survival and in-life observations. Type of data set: in vivo, Mouse (mdx). To be noted: for MTD % Survival / MTD in-life observations: n=3. How it is done:
The maximum tolerated dose (MTD) of selected peptide-oligomer-conjugates of the disclosure was determined in mice according to the regimens shown in Table 8. […] PPMO-5 has a MTD>200 mg/kg.
Importantly, the toxicity of a peptide-oligomer-conjugate can be described in two phases: t1 and t2. t1 refers to rapid death, or death within 48 hours, most likely due to cardiopulmonary collapse. t2 refers to chronic kidney toxicity, observed with a peptide-oligomer-conjugate after multiple weekly doses. The MTD measurements described herein refer to ti toxicity (48 hour endpoint).

Data set [2] in a line: Individual body weights in dose response study. Type of data set: in vivo, Mouse (mdx). Particulars: mdx mice. How it is done: (§1) Any animal showing signs of distress, particularly if death appeared imminent was humanely euthanized according to Numira Biosciences Standard Operating Procedures. Body weights were recorded on the day after arrival, the day of dosing, and the day of necropsy. Detailed clinical observations were conducted and recorded at 0 minutes, 15 minutes, and 2 hours post-dose to assess tolerability of injections.

Data set [3] is described as follows: Animal health / clinical observations in dose response study. Type of data set: in vivo. As for the experimental part: (§2) The day of dosing on the study was designated as Study Day 1. Each peptide-oligomer-conjugate was vortexted for approximately 10 seconds prior to dosing, and administered via tail vein as a slow push bolus (˜5 seconds; 200 μL). Dosing was performed over two days. All animals receiving the same peptide-oligomer-conjugate were dosed on the same day. […] Any remaining spare animals were necropsied and tissues collected as specified below.
as §1
Animals unlikely to survive until the next scheduled observation were weighed and euthanized. Animals found dead were weighed and the time of death was estimated as closely as possible. Blood and tissue samples were not collected.
The partial gross necropsy included examination and documentation of findings. All external surfaces and orifices were evaluated. All abnormalities observed during the collection of the tissues listed below were described completely and recorded. No additional tissues were taken.

On the set-up of data set [4]: species or system Mouse (mdx). To be noted: mouse, in vivo. The text has this: BUN levels are increased when compared to PPMO-8.
Another data set has as its system dystrophin exon 23. As to the kind of experiment: Dose response for efficacy in mdx mice: % exon 23 skipping by nested RT-PCR. Type of data set: in vivo, Mouse (mdx). To be noted: for % Exon 23 Skip (Average), Diaphragm / % Exon 23 Skip (Average), Heart / % Exon 23 Skip (Average), Quadricep (L): mdx mice, 7 days post-dose, n=5.
Source text: The aim of this study was to compare efficacy of peptide-oligomer-conjugates of the disclosure in a dose response study in mice. The spacing between the peptide and PMO modulates efficacy. Accordingly, PEG lengths of 3, 4, and 8 were used to systematically increase spacing between Ac-R6-Gly (SEQ ID NO:1) and the PMO. Additionally, an all-D amino acid version of Ac-R6-Gly (SEQ ID NO:1) and Ac-R6-Apa (SEQ ID NO:4) (4-amino phenyl acetic acid; aromatic, hydrophobic linker) were used (Table 2).
Selected peptide-oligomer-conjugates that were tested are listed in Table 2 (the peptide-oligomer-conjugates were formulated in saline and stored at 5° C.).
Animals were randomized into treatment groups based on cage weights as specified in Table 4.
as §2
On day 8 (7 days post-dose), all animals, including any untreated or spare animals, were humanely euthanized with carbon dioxide. Euthanasia was performed in accordance with accepted American Veterinary Medical Association (AVMA) guidelines on Euthanasia, June 2007.
Tissues were collected within 15 minutes or less of euthanasia. All instruments and tools used were changed between treatment groups. All tissues were flash frozen and stored at a temperature lower than −70° C. as soon as possible after collection. The following tissues were collected: liver, kidneys, heart, quads, and diaphragm.
RNA from mouse quadriceps, heart, and diaphragm tissue was purified using GE Illustra RNAspin 96 well extraction kits. Briefly, 400 μL of lysis buffer (RA1+1% 2-mercaptoethanol was added to about 20-30 mg of frozen tissue in a plate with zirconia beads (Biospec) and homogenized using GenoGrinder (Spex Sample Prep) at 4×8 minutes at 1750 RPM; cooling between each run. The homogenate was immediately processed for RNA purification according to the GE RNAspin Illustra 96 well protocol. Total RNA was quantitated with a Nanodrop 2000 spectrophotometer (ThermoScientific).
RNA was analyzed by a classic nested PCR reaction. RT-PCR reagents were from Invitrogen unless otherwise specified. PCR reactions were run in a CFX96 or S1000 thermocycler (BioRad). Final cDNA products were separated on a NuPage 10% TBE gel (Invitrogen) run at 200V, 1 hr at room temperature. Gels were scanned with a Typhoon Trio (GE Healthcare) using a 670 BP 30 Cy5 emission filter and analyzed with ImageQuant software.
Primers used for PCR analysis were as follows: dystrophin outer forward (5′-[…]-3′; SEQ ID NO:9), dystrophin outer reverse (5′-[…]-3′; SEQ ID NO:10), dystrophin inner forward (5′-[…]-3′; SEQ ID NO:11), and dystrophin inner reverse (5′-[…]-3′; SEQ ID NO:12).

[5] abbreviates: 100 mg/kg single i.v. injection.
The mark [6] stands for this setting: 150 mg/kg single i.v. injection.
[7] abbreviates: 200 mg/kg single i.v. injection.
The mark [8] stands for this setting: 5 mg/kg single i.v., day 8, one value per animal, 5 mg/kg.
Where [9] appears, read: 10 mg/kg single i.v., day 8, one value per animal, 10 mg/kg.
[10] abbreviates: 20 mg/kg single i.v., day 8, one value per animal, 20 mg/kg.
[11] abbreviates: 40 mg/kg single i.v., day 8, one value per animal (FD = found dead), 40 mg/kg.
[12] abbreviates: 80 mg/kg single i.v., day 8, one value per animal, 80 mg/kg.

With `CC(=O)N[C@@H](CCCNC(=N)N)C(=O)N[C@@H](CCCNC(=N)N)C(=O)N[C@@H](CCCNC(=N)N)C(=O)N[C@@H](CCCNC(=N)N)C(=O)N[C@@H](CCCNC(=N)N)C(=O)N[C@@H](CCCNC(=N)N)C(=O)NCC(=O)N1CCN(C(=O)OCCOCCOCCOC(=O)N2C[C@@H](COP(=O)(N(C)C)N3C[C@@H](COP(=O)(N(C)C)N4C[C@@H](COP(=O)(N(C)C)N5C[C@@H](COP(=O)(N(C)C)N6C[C@@H](COP(=O)(N(C)C)N7C[C@@H](COP(=O)(N(C)C)N8C[C@@H](COP(=O)(N(C)C)N9C[C@@H](COP(=O)(N(C)C)N%10C[C@@H](COP(=O)(N(C)C)N%11C[C@@H](COP(=O)(N(C)C)N%12C[C@@H](COP(=O)(N(C)C)N%13C[C@@H](COP(=O)(N(C)C)N%14C[C@@H](COP(=O)(N(C)C)N%15C[C@@H](COP(=O)(N(C)C)N%16C[C@@H](COP(=O)(N(C)C)N%17C[C@@H](COP(=O)(N(C)C)N%18C[C@@H](COP(=O)(N(C)C)N%19C[C@@H](COP(=O)(N(C)C)N%20C[C@@H](COP(=O)(N(C)C)N%21CCN(C(=O)OCCOCCOCCO)CC%21)O[C@@H](n%21cnc%22c(=O)[nH]c(N)nc%22%21)C%20)O[C@@H](n%20ccc(N)nc%20=O)C%19)O[C@@H](n%19cc(C)c(=O)[nH]c%19=O)C%18)O[C@@H](n%18cnc%19c(N)ncnc%19%18)C%17)O[C@@H](n%17cc(C)c(=O)[nH]c%17=O)C%16)O[C@@H](n%16cc(C)c(=O)[nH]c%16=O)C%15)O[C@@H](n%15cnc%16c(N)ncnc%16%15)C%14)O[C@@H](n%14ccc(N)nc%14=O)C%13)O[C@@H](n%13ccc(N)nc%13=O)C%12)O[C@@H](n%12cc(C)c(=O)[nH]c%12=O)C%11)O[C@@H](n%11cc(C)c(=O)[nH]c%11=O)C%10)O[C@@H](n%10cnc%11c(N)ncnc%11%10)C9)O[C@@H](n9cnc%10c(N)ncnc%109)C8)O[C@@H](n8ccc(N)nc8=O)C7)O[C@@H](n7ccc(N)nc7=O)C6)O[C@@H](n6ccc(N)nc6=O)C5)O[C@@H](n5cnc6c(N)ncnc65)C4)O[C@@H](n4cnc5c(=O)[nH]c(N)nc54)C3)O[C@@H](n3cc(C)c(=O)[nH]c3=O)C2)CC1` (stereo partly drawn) [PPMO-4], the “MTD % Survival” value in data set [1] (50 mg/kg single i.v. injection) is listed as 100%; in data set [1] (setting [5]) it was 100%; in data set [1] (setting [6]), 100%; in data set [1] (setting [7]), 0%. The MTD in-life observations in data set [1] (100 mg/kg single i.v.) is 3/3 slow to recover at 15 min., ok by 2 hours; in data set [1] (150 mg/kg single i.v.), 3/3 lethargic at 15 min., ok by 2 hours; in data set [1] (200 mg/kg single i.v.), 3/3 lethargic at 15 min and 2 hours, 3/3 dead at 24 hours. Also, the “Individual body weight, pre-necropsy” value was 21.45 g and 22.61 g and 19.15 g and 19.6 g and 21.53 g in data set [2] (setting [8]); 19.41 g and 21.91 g and 18.98 g and 20.43 g and 20.49 g in data set [2] (setting [9]); 20.09 g and 21.25 g and 22.62 g and 20.71 g and 17.08 g in data set [2] (setting [10]); 20.59 g and 18.25 g and 22.63 g and 21.35 g and 21.22 g in data set [2] (setting [11]); 23.86 g and 17.9 g and 21.36 g and 21.1 g and 20.69 g in data set [2] (setting [12]). In addition, the Animal health observation result in data set [3] (5 mg/kg, at necropsy, animal 2406) was “right eye closed and had a white substance exuding from it”; in data set [3] (40 mg/kg single i.v.), “slow to recover at the 15 minute observation but recovered by the 2 hour observation”; in data set [3] (80 mg/kg single i.v.), “slow to recover at the 15 minute observation but recovered by the 2 hour observation”.

As to “Ac-dR6-G (all-D amino acid R) (SEQ ID NO: 8) (RRRRRRG; N-acetyl; all-D amino acids; SITE 1 acetylation of N terminus; SITE 1..6 D-Arginine) [PPMO-7]”, the “Liver and kidney serum chemistry markers” value in data set [4] is “increased liver and kidney serum chemistry markers”. Besides, the “Efficacy (% exon 23 skipping), in words” value with dystrophin exon 23 (comparison with other conjugates / linkers) is “improved efficacy”. Besides, the “% Exon 23 Skip (Average), Diaphragm” value was 1% in the data set with dystrophin exon 23 (5 mg/kg single i.v. injection); 6% in the data set on dystrophin exon 23 (10 mg/kg single i.v. injection); 30% in the data set with dystrophin exon 23 (20 mg/kg single i.v. injection); 67% in the data set on dystrophin exon 23 (40 mg/kg single i.v. injection); 93% with dystrophin exon 23 (80 mg/kg single i.v. injection). The “% Exon 23 Skip (Average), Heart” value in the data set on dystrophin exon 23 (5 mg/kg single i.v. injection) was found to be 0%; in the data set with dystrophin exon 23 (10 mg/kg single i.v. injection) it was 2%; with dystrophin exon 23 (20 mg/kg single i.v. injection), 13%; in the data set on dystrophin exon 23 (40 mg/kg single i.v. injection) it was 42%; in the data set with dystrophin exon 23 (80 mg/kg single i.v. injection), 93%. The “% Exon 23 Skip (Average), Quadricep (L)” value is on record as 4% with dystrophin exon 23 (5 mg/kg single i.v. injection); 11% in the data set with dystrophin exon 23 (10 mg/kg single i.v. injection); 53% in the data set on dystrophin exon 23 (20 mg/kg single i.v. injection); 89% in the data set with dystrophin exon 23 (40 mg/kg single i.v. injection); 92% in the data set on dystrophin exon 23 (80 mg/kg single i.v. injection). The “MTD % Survival” value in data set [1] (50 mg/kg single i.v. injection) is reported as 100%; in data set [1] (setting [5]), 100%; in data set [1] (setting [6]), 100%; in data set [1] (setting [7]) it was 33%. In addition, the MTD in-life observations is 3/3 slow to recover at 15 min., ok by 2 hours in data set [1] (100 mg/kg single i.v.); 3/3 slow to recover at 15 min., ok by 2 hours in data set [1] (150 mg/kg single i.v.); 2/3 dead at 15 minutes, 1/3 lethargic at 15 min and 2 hours in data set [1] (200 mg/kg single i.v.). For the same compound, the Tolerability result in data set [1] (MTD study, in words) is given as “not well-tolerated”. The “Individual body weight, pre-necropsy” value in data set [2] (setting [8]) was 22.3 g and 22.46 g and 23.21 g and 21.43 g and 23.41 g; in data set [2] (setting [9]), 17.85 g and 22.7 g and 23.56 g and 21.97 g and 21.8 g; in data set [2] (setting [10]), 20.85 g and 20.17 g and 21.1 g and 21.38 g and 24.55 g; in data set [2] (setting [11]), 22.58 g and 22.21 g and 21.29 g and 18.19 g and 20.93 g; in data set [2] (setting [12]), 21.98 g and 22.63 g and 19.65 g and 19.9 g and 22.86 g.
